Assay [1] concerns the target JetB (E. coli GF4-3), as subunit of the JetABC complex (E. coli strain GF4-3). The assay can be described thus: cryo-EM structure.
For assay [2], the target named is JetC (E. coli GF4-3), as subunit of the JetABC complex (E. coli strain GF4-3). In words: cryo-EM structure.

The substance “JetB (E. coli GF4-3), as subunit of the JetABC complex (natural protein)” gave a stoichiometry N in assay [1] of 2.
“JetC (E. coli GF4-3), as subunit of the JetABC complex (natural protein)” came in with a stoichiometry N in assay [2] of 2.

Broadly, the stoichiometry N is the number of molecules, sites or subunits per partner or assembly.

These data come from doi:10.1101/2022.10.04.510915.
